Data taken from patent US20230277625A1.
Substitutions are numbered along the chain they refer to. In names and notes the source's numbering stands. One block for each binder: values may come before it.

Molecular target: T1, Human IL-18Rα ectodomain (amino acids 19-329), biotinylated (human), Q13478
T1 chain: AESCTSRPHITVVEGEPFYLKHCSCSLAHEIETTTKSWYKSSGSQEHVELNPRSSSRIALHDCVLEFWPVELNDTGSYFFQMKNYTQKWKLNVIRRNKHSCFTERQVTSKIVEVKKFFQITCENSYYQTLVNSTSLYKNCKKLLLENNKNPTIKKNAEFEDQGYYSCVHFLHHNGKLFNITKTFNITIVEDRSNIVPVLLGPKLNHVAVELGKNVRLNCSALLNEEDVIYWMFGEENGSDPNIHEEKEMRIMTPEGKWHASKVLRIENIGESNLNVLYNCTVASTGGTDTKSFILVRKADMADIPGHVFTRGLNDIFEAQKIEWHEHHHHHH
Test: on-yeast binding isotherm (flow cytometry), drawn summary table, IL18Rα (KD)
Conditions: remark: other sources report otherwise

Kd: 9.7 µM
B1: SEQ ID NO: 125 (human D2D IL-18 consensus hD2D-CS3), Q14116 37-193 (ligand)
chain: YFGKLESKLSVIRNLNGQVLFIDQGNRPLFADMESSDCRDNAPRTIFIISFYKDSQPRGLAVTISVKCEKISTLSCENKIISFKEMNPPDNIKDTKSDIIFFLRSVPGHDNKMQFESSSYEGYFLACEKERDLFKLILKKEDELGDRSIMFTVQNED
modifications: here or on the partner: biotin on the AviTag (BirA ligase)

Kd: 0.43 µM
B2: SEQ ID NO: 123 (human D2D IL-18 consensus hD2D-CS1), Q14116 37-193 (ligand)
chain: B1 chain with E34T, S35D, F51M, L60M
modifications: here or on the partner: biotin on the AviTag (BirA ligase)

Kd: 21 µM
B3: SEQ ID NO: 124 (human D2D IL-18 consensus hD2D-CS2), Q14116 37-193 (ligand)
chain: B1 chain with E34T, L60M
modifications: here or on the partner: biotin on the AviTag (BirA ligase)
